{"source": "FireProtDB (doi:10.1074/jbc.m112.408906)", "parents": {"B1": {"name": "Myocilin, Q99972 (parent)", "chain": "MRFFCARCCSFGPEMPAVQLLLLACLVWDVGARTAQLRKANDQSGRCQYTFSVASPNESSCPEQSQAMSVIHNLQRDSSTQRLDLEATKARLSSLESLLHQLTLDQAARPQETQEGLQRELGTLRRERDQLETQTRELETAYSNLLRDKSVLEEEKKRLRQENENLARRLESSSQEVARLRRGQCPQTRDTARAVPPGSREVSTWNLDTLAFQELKSELTEVPASRILKESPSGYLRSGEGDTGCGELVWVGEPLTLRTAETITGKYGVWMRDPKPTYPYTQETTWRIDTVGTDVRQVFEYDLISQFMQGYPSKVHILPRPLESTGAVVYSGSLYFQGAESRTVIRYELNTETVKAEKEIPGAGYHGQFPYSWGGYTDIDLAVDEAGLWVIYSTDEAKGAIVLSKLNPENLELEQTWETNIRKQSVANAFIICGTLYTVSSYTSADATVNFAYDTGTGISKTLTIPFKNRYKYSSMIDYNPLEKKLFAWDNLNMVTYDIKLSKM"}}, "variants_of": "B1", "settings": "Homo sapiens, pH 6, Thermal, CD, Sodium acetate 10mM, reversible: no, structure 4WXQ, whole UniProt chain shown"}
{"variant": "I477S", "values": [{"measurement": "Tm", "setting": "CaCl2 1mM", "result": 39.7, "unit": "°C"}, {"measurement": "change of melting temperature, mutant - wild type (higher = more stable)", "setting": "CaCl2 1mM", "result": -13.3, "unit": "°C"}, {"measurement": "Tm", "setting": "CaCl2 10mM", "result": 48.2, "unit": "°C"}, {"measurement": "change of melting temperature, mutant - wild type (higher = more stable)", "setting": "CaCl2 10mM", "result": -11.4, "unit": "°C"}]}
{"variant": "I477N", "values": [{"measurement": "Tm", "setting": "CaCl2 1mM", "result": 37.7, "unit": "°C"}, {"measurement": "change of melting temperature, mutant - wild type (higher = more stable)", "setting": "CaCl2 1mM", "result": -15.3, "unit": "°C"}]}
{"variant": "T377M", "values": [{"measurement": "Tm", "setting": "CaCl2 1mM", "result": 44.3, "unit": "°C"}, {"measurement": "change of melting temperature, mutant - wild type (higher = more stable)", "setting": "CaCl2 1mM", "result": -8.7, "unit": "°C"}, {"measurement": "Tm", "setting": "CaCl2 10mM", "result": 50.6, "unit": "°C"}, {"measurement": "change of melting temperature, mutant - wild type (higher = more stable)", "setting": "CaCl2 10mM", "result": -9, "unit": "°C"}]}
{"variant": "G252R", "values": [{"measurement": "Tm", "setting": "CaCl2 1mM", "result": 43, "unit": "°C"}, {"measurement": "change of melting temperature, mutant - wild type (higher = more stable)", "setting": "CaCl2 1mM", "result": -10, "unit": "°C"}, {"measurement": "Tm", "setting": "CaCl2 10mM", "result": 51.5, "unit": "°C"}, {"measurement": "change of melting temperature, mutant - wild type (higher = more stable)", "setting": "CaCl2 10mM", "result": -8.1, "unit": "°C"}]}
{"variant": "C433R", "values": [{"measurement": "Tm", "setting": "CaCl2 1mM", "result": 40.4, "unit": "°C"}, {"measurement": "change of melting temperature, mutant - wild type (higher = more stable)", "setting": "CaCl2 1mM", "result": -12.6, "unit": "°C"}, {"measurement": "Tm", "setting": "CaCl2 10mM", "result": 49.4, "unit": "°C"}, {"measurement": "change of melting temperature, mutant - wild type (higher = more stable)", "setting": "CaCl2 10mM", "result": -10.2, "unit": "°C"}]}
{"variant": "R272G", "values": [{"measurement": "Tm", "setting": "CaCl2 1mM", "result": 41, "unit": "°C"}, {"measurement": "change of melting temperature, mutant - wild type (higher = more stable)", "setting": "CaCl2 1mM", "result": -12, "unit": "°C"}, {"measurement": "Tm", "setting": "CaCl2 10mM", "result": 48.6, "unit": "°C"}, {"measurement": "change of melting temperature, mutant - wild type (higher = more stable)", "setting": "CaCl2 10mM", "result": -11, "unit": "°C"}]}
{"variant": "K423E", "values": [{"measurement": "Tm", "setting": "CaCl2 1mM", "result": 34.2, "unit": "°C"}, {"measurement": "change of melting temperature, mutant - wild type (higher = more stable)", "setting": "CaCl2 1mM", "result": -18.8, "unit": "°C"}, {"measurement": "Tm", "setting": "CaCl2 10mM", "result": 43.2, "unit": "°C"}, {"measurement": "change of melting temperature, mutant - wild type (higher = more stable)", "setting": "CaCl2 10mM", "result": -16.4, "unit": "°C"}]}
{"variant": "P481L", "values": [{"measurement": "Tm", "setting": "CaCl2 1mM", "result": 45.5, "unit": "°C"}, {"measurement": "change of melting temperature, mutant - wild type (higher = more stable)", "setting": "CaCl2 1mM", "result": -7.5, "unit": "°C"}, {"measurement": "Tm", "setting": "CaCl2 10mM", "result": 51.2, "unit": "°C"}, {"measurement": "change of melting temperature, mutant - wild type (higher = more stable)", "setting": "CaCl2 10mM", "result": -8.4, "unit": "°C"}]}
{"variant": "S502P", "values": [{"measurement": "Tm", "setting": "CaCl2 1mM", "result": 41, "unit": "°C"}, {"measurement": "change of melting temperature, mutant - wild type (higher = more stable)", "setting": "CaCl2 1mM", "result": -12, "unit": "°C"}, {"measurement": "Tm", "setting": "CaCl2 10mM", "result": 49.9, "unit": "°C"}, {"measurement": "change of melting temperature, mutant - wild type (higher = more stable)", "setting": "CaCl2 10mM", "result": -9.7, "unit": "°C"}]}
{"variant": "Y437H", "values": [{"measurement": "Tm", "setting": "CaCl2 1mM", "result": 40.3, "unit": "°C"}, {"measurement": "change of melting temperature, mutant - wild type (higher = more stable)", "setting": "CaCl2 1mM", "result": -12.7, "unit": "°C"}, {"measurement": "Tm", "setting": "CaCl2 10mM", "result": 48.6, "unit": "°C"}, {"measurement": "change of melting temperature, mutant - wild type (higher = more stable)", "setting": "CaCl2 10mM", "result": -11, "unit": "°C"}]}
{"variant": "E323K", "values": [{"measurement": "Tm", "setting": "CaCl2 1mM", "result": 44, "unit": "°C"}, {"measurement": "change of melting temperature, mutant - wild type (higher = more stable)", "setting": "CaCl2 1mM", "result": -9, "unit": "°C"}, {"measurement": "Tm", "setting": "CaCl2 10mM", "result": 50.3, "unit": "°C"}, {"measurement": "change of melting temperature, mutant - wild type (higher = more stable)", "setting": "CaCl2 10mM", "result": -9.3, "unit": "°C"}]}
{"variant": "E385A", "values": [{"measurement": "Tm", "setting": "CaCl2 1mM", "result": 39.7, "unit": "°C"}, {"measurement": "change of melting temperature, mutant - wild type (higher = more stable)", "setting": "CaCl2 1mM", "result": -13.3, "unit": "°C"}, {"measurement": "Tm", "setting": "CaCl2 10mM", "result": 49.7, "unit": "°C"}, {"measurement": "change of melting temperature, mutant - wild type (higher = more stable)", "setting": "CaCl2 10mM", "result": -9.9, "unit": "°C"}]}
{"variant": "I499F", "values": [{"measurement": "Tm", "setting": "CaCl2 1mM", "result": 42.8, "unit": "°C"}, {"measurement": "change of melting temperature, mutant - wild type (higher = more stable)", "setting": "CaCl2 1mM", "result": -10.2, "unit": "°C"}, {"measurement": "Tm", "setting": "CaCl2 10mM", "result": 50.4, "unit": "°C"}, {"measurement": "change of melting temperature, mutant - wild type (higher = more stable)", "setting": "CaCl2 10mM", "result": -9.2, "unit": "°C"}]}
{"variant": "D380A", "values": [{"measurement": "Tm", "setting": "CaCl2 1mM", "result": 46.6, "unit": "°C"}, {"measurement": "change of melting temperature, mutant - wild type (higher = more stable)", "setting": "CaCl2 1mM", "result": -6.4, "unit": "°C"}, {"measurement": "Tm", "setting": "CaCl2 10mM", "result": 45.1, "unit": "°C"}, {"measurement": "change of melting temperature, mutant - wild type (higher = more stable)", "setting": "CaCl2 10mM", "result": -14.5, "unit": "°C"}]}
{"variant": "N480K", "values": [{"measurement": "Tm", "setting": "CaCl2 1mM", "result": 42.4, "unit": "°C"}, {"measurement": "change of melting temperature, mutant - wild type (higher = more stable)", "setting": "CaCl2 1mM", "result": -10.6, "unit": "°C"}, {"measurement": "Tm", "setting": "CaCl2 10mM", "result": 48.1, "unit": "°C"}, {"measurement": "change of melting temperature, mutant - wild type (higher = more stable)", "setting": "CaCl2 10mM", "result": -11.5, "unit": "°C"}]}
{"variant": "D273A", "values": [{"measurement": "Tm", "setting": "CaCl2 1mM", "result": 21.7, "unit": "°C"}, {"measurement": "change of melting temperature, mutant - wild type (higher = more stable)", "setting": "CaCl2 1mM", "result": -31.3, "unit": "°C"}, {"measurement": "Tm", "setting": "CaCl2 10mM", "result": 21.1, "unit": "°C"}, {"measurement": "change of melting temperature, mutant - wild type (higher = more stable)", "setting": "CaCl2 10mM", "result": -38.5, "unit": "°C"}]}
{"variant": "G367R", "values": [{"measurement": "Tm", "setting": "CaCl2 1mM", "result": 42.7, "unit": "°C"}, {"measurement": "change of melting temperature, mutant - wild type (higher = more stable)", "setting": "CaCl2 1mM", "result": -10.3, "unit": "°C"}, {"measurement": "Tm", "setting": "CaCl2 10mM", "result": 50.9, "unit": "°C"}, {"measurement": "change of melting temperature, mutant - wild type (higher = more stable)", "setting": "CaCl2 10mM", "result": -8.7, "unit": "°C"}]}
{"variant": "V426F", "values": [{"measurement": "Tm", "setting": "CaCl2 1mM", "result": 41.5, "unit": "°C"}, {"measurement": "change of melting temperature, mutant - wild type (higher = more stable)", "setting": "CaCl2 1mM", "result": -11.5, "unit": "°C"}, {"measurement": "Tm", "setting": "CaCl2 10mM", "result": 49.9, "unit": "°C"}, {"measurement": "change of melting temperature, mutant - wild type (higher = more stable)", "setting": "CaCl2 10mM", "result": -9.7, "unit": "°C"}]}
{"variant": "D384A", "values": [{"measurement": "Tm", "setting": "CaCl2 1mM", "result": 42.5, "unit": "°C"}, {"measurement": "change of melting temperature, mutant - wild type (higher = more stable)", "setting": "CaCl2 1mM", "result": -10.5, "unit": "°C"}]}
{"variant": "A427T", "values": [{"measurement": "Tm", "setting": "CaCl2 1mM", "result": 48.3, "unit": "°C"}, {"measurement": "change of melting temperature, mutant - wild type (higher = more stable)", "setting": "CaCl2 1mM", "result": -4.7, "unit": "°C"}, {"measurement": "Tm", "setting": "CaCl2 10mM", "result": 55.2, "unit": "°C"}, {"measurement": "change of melting temperature, mutant - wild type (higher = more stable)", "setting": "CaCl2 10mM", "result": -4.4, "unit": "°C"}]}
{"variant": "G246R", "values": [{"measurement": "Tm", "setting": "CaCl2 1mM", "result": 42.5, "unit": "°C"}, {"measurement": "change of melting temperature, mutant - wild type (higher = more stable)", "setting": "CaCl2 1mM", "result": -10.5, "unit": "°C"}, {"measurement": "Tm", "setting": "CaCl2 10mM", "result": 50.6, "unit": "°C"}, {"measurement": "change of melting temperature, mutant - wild type (higher = more stable)", "setting": "CaCl2 10mM", "result": -9, "unit": "°C"}]}
{"variant": "G364V", "values": [{"measurement": "Tm", "setting": "CaCl2 1mM", "result": 45, "unit": "°C"}, {"measurement": "change of melting temperature, mutant - wild type (higher = more stable)", "setting": "CaCl2 1mM", "result": -8, "unit": "°C"}, {"measurement": "Tm", "setting": "CaCl2 10mM", "result": 51.9, "unit": "°C"}, {"measurement": "change of melting temperature, mutant - wild type (higher = more stable)", "setting": "CaCl2 10mM", "result": -7.7, "unit": "°C"}]}
